Biological target: T1, human C1q (human, UniProt P02745 23-245; P02746 28-253; P02747 29-245)
T1 construct: also called first component of the classical complement cascade
Assay: ELISA, antibody coated, C1q detected with rabbit anti-human C1q
Protocol: In short, microtiter ELISA plates (Greiner, Germany) were coated overnight at RT with the test antibodies serially diluted from 10 μg/ml to 0.06 μg/ml in PBS. Plates were emptied and wells were blocked with 200 μl ELISA-diluent per well (0.1 M NaPO₄, 0.1 M NaCl, 0.1% gelatin and 0.05% Tween-20), at RT for 30 minutes. […] After washing the plates (3×) with PBST, wells were incubated with HRP-conjugated swine anti-rabbit IgG-Fc (DAKO, P0300, lot #069) diluted in ELISA diluent (1:2500, 100 μl/well, RT, 1 hour). Thereafter, plates were washed thrice and assays were developed with freshly prepared 1 mg/ml ABTS solution (ABTS: 2,2′-azino-bis[3-ethylbenzthiazoline-6-sulfonic acid]); 2 tablets of 5 mg in 10 ml ABTS buffer, Boehringer Mannheim, Ingelheim, Germany) at RT in the dark for 30 minutes. Absorbance was measured at 405 nm in an ELISA plate reader (Biotek Instruments Inc., Winooski, USA).

T1 sequence (P02745 23-245, chain 1 of 3): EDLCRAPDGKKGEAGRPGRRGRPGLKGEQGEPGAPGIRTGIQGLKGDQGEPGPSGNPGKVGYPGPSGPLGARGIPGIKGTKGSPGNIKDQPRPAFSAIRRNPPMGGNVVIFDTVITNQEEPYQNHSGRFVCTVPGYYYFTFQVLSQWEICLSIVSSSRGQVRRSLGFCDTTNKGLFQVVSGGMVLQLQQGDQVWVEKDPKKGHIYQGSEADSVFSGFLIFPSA
T1 sequence (P02746 28-253, chain 2 of 3): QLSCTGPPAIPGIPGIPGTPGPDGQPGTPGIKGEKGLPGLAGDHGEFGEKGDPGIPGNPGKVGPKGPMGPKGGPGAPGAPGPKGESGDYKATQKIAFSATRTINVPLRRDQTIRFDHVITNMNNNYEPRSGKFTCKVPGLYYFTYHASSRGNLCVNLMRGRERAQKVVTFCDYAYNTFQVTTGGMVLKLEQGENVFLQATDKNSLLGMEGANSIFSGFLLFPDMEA
T1 sequence (P02747 29-245, chain 3 of 3): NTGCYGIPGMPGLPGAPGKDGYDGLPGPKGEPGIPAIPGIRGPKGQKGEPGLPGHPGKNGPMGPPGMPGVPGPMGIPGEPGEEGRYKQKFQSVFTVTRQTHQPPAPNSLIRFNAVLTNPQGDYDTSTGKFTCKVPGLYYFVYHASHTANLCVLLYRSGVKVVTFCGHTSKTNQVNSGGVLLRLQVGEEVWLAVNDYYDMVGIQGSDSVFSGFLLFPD

binding result: no binding
B1: 7D8-HG (antibody)
heavy: EVQLVESGGGLVQPDRSLRLSCAASGFTFHDYAMHWVRQAPGKGLEWVSTISWNSGTIGYADSVKGRFTISRDNAKNSLYLQMNSLRAEDTALYYCAKDIQYGNYYYGMDVWGQGTTVTVSSASTKGPSVFPLAPCSRSTSESTAALGCLVKDYFPEPVTVSWNSGALTSGVHTFPAVLQSSGLYSLSSVVTVPSSSLGTKTYTCNVDHKPSNTKVDKRVAPEFLGGPSVFLFPPKPKDTLMISRTPEVTCVVVDVSQEDPEVQFNWYVDGVEVHNAKTKPREEQFNSTYRVVSVLTVLHQDWLNGKEYKCKVSNKGLPSSIEKTISKAKGQPREPQVYTLPPSQEEMTKNQVSLTCLVKGFYPSDIAVEWESNGQPENNYKTTPPVLDSDGSFFLYSRLTVDKSRWQEGNVFSCSVMHEALHNHYTQKSLSLSLGK
light: not shown
notes: Half-molecule of one heavy and one light chain (SDS-PAGE, MS 71520 Da); also called HuMab 7D8-HG; hingeless IgG4 anti-CD20

Source: patent US20090226421A1 (Genmab, published 2009)
